In patent US20160244525A1 (Genentech, published 2016):
Values belong to the binder of their own block, whether it stands above or below them.

Tests used:
FGFR3-IIIc [1] = molecular target: T1, FGFR3-IIIc (human, UniProt P22607 23-375, limits assumed); assay: surface plasmon resonance (Biacore)
T1 construct: also called human FGFR3-IIIc
T1 sequence: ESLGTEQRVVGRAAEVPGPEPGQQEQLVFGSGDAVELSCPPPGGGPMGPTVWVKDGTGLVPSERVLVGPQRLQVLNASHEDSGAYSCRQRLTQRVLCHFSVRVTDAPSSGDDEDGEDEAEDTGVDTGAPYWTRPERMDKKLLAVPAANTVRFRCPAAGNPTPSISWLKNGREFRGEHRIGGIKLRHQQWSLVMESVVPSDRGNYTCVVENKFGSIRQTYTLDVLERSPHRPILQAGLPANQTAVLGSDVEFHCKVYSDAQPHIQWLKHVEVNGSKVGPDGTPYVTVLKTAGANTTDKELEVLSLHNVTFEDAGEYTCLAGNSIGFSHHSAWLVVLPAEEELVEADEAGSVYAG

FGFR1-IIIb [2] = molecular target: T2, FGFR1-IIIb (human, UniProt P11362-19 22-376, limits assumed); assay: SPR
T2 construct: Soluble FGFR antigen in SPR
T2 sequence (looked up): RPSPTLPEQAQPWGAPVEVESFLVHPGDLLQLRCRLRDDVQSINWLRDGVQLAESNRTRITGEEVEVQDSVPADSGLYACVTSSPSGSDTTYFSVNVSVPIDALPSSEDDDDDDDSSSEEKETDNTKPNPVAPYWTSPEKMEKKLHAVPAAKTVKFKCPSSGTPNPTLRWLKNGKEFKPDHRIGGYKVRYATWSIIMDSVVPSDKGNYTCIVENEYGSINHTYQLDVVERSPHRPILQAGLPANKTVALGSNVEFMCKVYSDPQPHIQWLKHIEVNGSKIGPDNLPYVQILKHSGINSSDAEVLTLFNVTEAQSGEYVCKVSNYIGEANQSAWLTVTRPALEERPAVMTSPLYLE
Description: (§1) A saturated amount of anti-human Fc monoclonal antibody was immobilized onto a CM5 biosensor chip by following the product instructions. […] FGFR antigens of various concentrations were injected at a flow rate 30 μL/min. After each binding cycle, flow cells were regenerated using 3M MgCl₂. Kinetic analyses were performed using the T100 evaluation software to obtain the kinetic and affinity constants.
(§2) 1.3 variants were determined by capturing FGFR4-Fc and flowing the antibody Fab fragments (Table 12).

FGFR2-IIIc [3] = molecular target: T3, FGFR2-IIIc (human, UniProt P21802 22-377); assay: SPR
T3 construct: also called human FGFR2-IIIc; FGFR2-IIIc-His
Description: as §1, §2

FGFR3-IIIc [4] = molecular target: T1, FGFR3-IIIc; assay: SPR
Description: as §1, §2

FGFR2-IIIb (D2D3) = molecular target: T4, FGFR2-IIIb (D2D3) (human); assay: SPR (Biacore)
T4 construct: also called human FGFR2-IIIb ECD (residue 140-369)
T4 chain: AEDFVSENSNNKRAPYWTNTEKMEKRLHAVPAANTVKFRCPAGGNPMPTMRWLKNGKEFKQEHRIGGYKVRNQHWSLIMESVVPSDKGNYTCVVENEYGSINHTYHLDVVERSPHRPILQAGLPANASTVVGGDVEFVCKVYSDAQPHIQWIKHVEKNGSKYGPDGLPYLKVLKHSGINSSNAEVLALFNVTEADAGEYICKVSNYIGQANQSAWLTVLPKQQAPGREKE

FGFR2-IIIc [5] = molecular target: T3, FGFR2-IIIc; assay: SPR (Biacore T100), IgG captured by anti-human Fc, FGFR flowed
Description: as §1

FGFR3-IIIc [6] = molecular target: T1, FGFR3-IIIc; assay: as above
Description: as §1

FGFR2-IIIc [7] = molecular target: T3, FGFR2-IIIc; assay: blocking ELISA: FGFR2-IIIc-Fc captured on an anti-human Fc plate, antibody titrated, FGF-1 (with heparin) is the blocked ligand, bound FGF-1 read as OD450
Description: (§3) The plate was washed 5 times before being added with the antibody and FGF ligand mixtures, which was prepared as 49 μL 100 ng/mL FGF ligand, 1 μL 25 mg/mL Heparin (Sigma-Aldrich) and 50 μL antibody dilutions. After shaking at RT for 2 h, the plate was washed 5 times. Bound ligand was detected by subsequent incubations at RT with 0.5 μg/mL biotinylated anti-FGF antibodies (R&D Biosystems) for 0.5 h, 1:2,500-diluted Streptavidin-HRP (Invitrogen) for 0.5 h and the TMB substrate until enough color development.

FGFR3-IIIc [8] = molecular target: T1, FGFR3-IIIc; assay: blocking ELISA: FGFR3-IIIc-Fc captured on an anti-human Fc plate, antibody titrated, FGF-1 (with heparin) is the blocked ligand, bound FGF-1 read as OD450
Description: as §3

FGFR1-IIIb [9] = molecular target: T2, FGFR1-IIIb; assay: SPR (Biacore T100), IgG captured by anti-human Fc, FGFR flowed
Description: as §1

hKLB = molecular target: T5, hKLB; assay: FACS on 293 cells expressing hKLB, antibody at 0.8 ug/ml
T5 construct: also called human beta-Klotho on 293 cells
T5 sequence (chain, as listed by the source limits assumed): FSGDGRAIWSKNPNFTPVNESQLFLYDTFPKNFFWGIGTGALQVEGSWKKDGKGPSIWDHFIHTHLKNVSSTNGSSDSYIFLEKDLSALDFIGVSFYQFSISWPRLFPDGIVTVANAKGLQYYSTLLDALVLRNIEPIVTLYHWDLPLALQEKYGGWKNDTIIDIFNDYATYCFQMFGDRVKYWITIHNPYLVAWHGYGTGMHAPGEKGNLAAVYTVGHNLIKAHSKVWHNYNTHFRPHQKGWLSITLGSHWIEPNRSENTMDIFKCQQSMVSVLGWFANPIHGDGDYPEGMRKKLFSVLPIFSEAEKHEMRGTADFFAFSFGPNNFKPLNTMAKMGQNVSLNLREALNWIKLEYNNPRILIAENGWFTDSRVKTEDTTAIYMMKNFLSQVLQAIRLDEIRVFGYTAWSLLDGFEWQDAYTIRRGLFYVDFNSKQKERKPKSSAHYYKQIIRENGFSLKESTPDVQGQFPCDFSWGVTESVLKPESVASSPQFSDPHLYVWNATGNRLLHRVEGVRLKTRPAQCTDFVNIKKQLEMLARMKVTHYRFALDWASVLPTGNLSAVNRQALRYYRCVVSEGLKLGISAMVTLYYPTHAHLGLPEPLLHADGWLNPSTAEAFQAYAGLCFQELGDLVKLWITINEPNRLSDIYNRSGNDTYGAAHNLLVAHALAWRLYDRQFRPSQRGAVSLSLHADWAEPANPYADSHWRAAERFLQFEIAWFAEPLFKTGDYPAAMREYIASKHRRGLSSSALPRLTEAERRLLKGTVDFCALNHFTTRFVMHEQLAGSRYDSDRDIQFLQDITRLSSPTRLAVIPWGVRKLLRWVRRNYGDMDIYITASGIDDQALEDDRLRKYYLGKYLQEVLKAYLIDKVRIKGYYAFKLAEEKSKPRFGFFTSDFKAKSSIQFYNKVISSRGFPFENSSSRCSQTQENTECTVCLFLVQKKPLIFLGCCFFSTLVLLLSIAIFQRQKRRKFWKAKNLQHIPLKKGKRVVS

T3 sequence (P21802 22-377 limits assumed): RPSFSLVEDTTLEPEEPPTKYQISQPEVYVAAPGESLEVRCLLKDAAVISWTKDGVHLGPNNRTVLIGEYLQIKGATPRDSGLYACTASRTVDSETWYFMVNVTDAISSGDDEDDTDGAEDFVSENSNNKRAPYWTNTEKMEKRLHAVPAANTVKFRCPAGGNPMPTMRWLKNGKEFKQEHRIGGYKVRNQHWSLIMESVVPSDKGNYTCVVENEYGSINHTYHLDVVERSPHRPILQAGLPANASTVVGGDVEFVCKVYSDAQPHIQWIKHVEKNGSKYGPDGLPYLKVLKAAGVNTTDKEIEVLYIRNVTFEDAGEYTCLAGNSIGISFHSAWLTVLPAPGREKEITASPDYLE

binding result (FGFR1-IIIb [2]): no binding
Kd (FGFR2-IIIc [3]): 2 nM
Kd (FGFR3-IIIc [4]): 0.07 nM
Kd (FGFR2-IIIb (D2D3)): 0.71 nM
Kd (FGFR3-IIIc [1]): 0.0834 nM
Kd (FGFR2-IIIc [5]): 2 nM
Kd (FGFR3-IIIc [6]): 0.07 nM
IC50 (read off the curve) (FGFR2-IIIc [7]): ~5 nM
IC50 (read off the curve) (FGFR3-IIIc [8]): 2 to 3 nM
B2: 2B.1.3 (antibody, human IgG1, kappa, V domains shown)
VH: EVQLVESGGGLVQPGGSLRLSCAASGFTFTSTGISWVRQAPGKGLEWVGRTHLGDGSTNYADSVKGRFTISADTSKNTAYLQMNSLRAEDTAVYYCARTYGIYDLYVDYTEYVMDYWGQGTLVTVSS
VL: DIQMTQSPSSLSASVGDRVTITCRASQDVDTSLAWYKQKPGKAPKLLIYSASFLYSGVPSRFSGSGSGTDFTLTISSLQPEDFATYYCQQSTGHPQTFGQGTKVEIKR
notes: Full IgG1/kappa chains; also called Mab 2B.1.3

binding result (FGFR1-IIIb [9]): no binding (tested: 500 nM)
Kd (FGFR2-IIIc [5]): 1.1 nM
Kd (FGFR3-IIIc [6]): 0.25 nM
IC50 (read off the curve) (FGFR3-IIIc [8]): 2 to 3 nM
B4: 2B.1.3.10 (antibody, human IgG1, kappa, V domains shown)
VH: EVQLVESGGGLVQPGGSLRLSCAASGFPFTSQGISWVRQAPGKGLEWVGRTHLGDGSTNYADSVKGRFTISADTSKNTAYLQMNSLRAEDTAVYYCARTYGIYDTYDKYTEYVMDYWGQGTLVTVSS
VL: DIQMTQSPSSLSASVGDRVTITCRASQDVDTSLAWYKQKPGKAPKLLIYSASFLYSGVPSRFSGSGSGTDFTLTISSLQPEDFATYYCQQSTGHPQTFGQGTKVEIKR
notes: Full IgG1/kappa chains; also called Mab 2B.1.3.10

binding result (hKLB): binds
B11: 11D4 (antibody, V domains shown)
VH: QVQVKESGPGLVAPSQSLSITCTVSGFSLTNYGVSWIRQPPGKGLEWLGVIWGDGSINYHSALISRLTITKDNSKSQVFLKLNSLEADDTATYYCAKTHDWFDYWGQGTLVTVSA
VL: DIQMTQTPSSLSASLGDRVTINCRASQDISNYFNWYQQKPNGTIKLLIYYTSRLQSGVPSRFSGSGSGTDYSLTISNLEQEDKATYFCHQVRTLPWTFGGGTKLEIK

binding result (hKLB): binds
B12: 5F8 (antibody, V domains shown)
VH: EVQLQQSGTELVRPGASVKLSCTSSDFNIKDTYIHWVKQRPEQGLDWLGRIDPANGNTKYDPKFQGKAAMTSDTSSNTAYLRLSSLTSEDTAVYYCASSGNYGAMDYWGQGTSVTVSS
VL: ESVLTQSPALMSASLGEKVTMTCRASSSVNHMYWYQQKSDASPKLWIYYTSTLAPGVPARFSGSGSGNSYSLTISSMEGEDAATYYCQQFTISPSMYTFGGGTKLEIK

binding result (hKLB): binds
B13: 14C6 (antibody, V domains shown)
VH: QIQLQQSGAELMKPGASVRMSCKASGYTFSSYWIEWVKQRSGHGLEWIGEIFPGGGSTIYNENFRDKATFTADTSSNTAYMQLSSLTSEDSAVYFCARRGYYDAAWFDYWGQGTLVTVSA
VL: QIVLTQSPAIMSASPGERVTLTCSASSSLSSSYLYWYQQKPGSSPKLWIYGASNLASGVPGRFSGSGSGTSYSLTISSMEAEDAASYFCHQWSSYPLTFGSGTKLELK

binding result (hKLB): binds
B14: 8H7 (antibody, V domains shown)
VH: QVQLQQPGAEIVKPGASVRLSCKASGYSFTSYWIHWVKQRPGQGLEWIGEIDPSVSNSNYNQKFKGKATLTADKSSSTAYMQLSGLTSEDSAVYFCVRLGVMVYGSSPFWFAYWGQGTLVTVSA
VL: DIVMTQSQKFMSTSVGDRVSITCKASQFVSDAVAWYQQKPGQSPKLLICSASYRYTGVPDRFTGSGSGTDFTFTISSVRTEDLAVYYCQQHYIVPYTFGGGTTLEIE

binding result (hKLB): binds
B15: 24A1 (antibody, V domains shown)
VH: QVQLKQSGAELVRPGTSVTLSCKASGYTFTDYEMHWMKQTPVYGLEWIGAIWPENADSVYNQKFKGKVTLTADKSSSTAYMDLRSLTSEDSAVYYCTREGGNYWGQGTTLTVSS
VL: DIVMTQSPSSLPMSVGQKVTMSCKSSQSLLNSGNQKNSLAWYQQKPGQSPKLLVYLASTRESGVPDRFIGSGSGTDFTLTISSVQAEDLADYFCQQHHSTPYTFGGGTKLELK

Second part, the binder before the results:

B1: 2B1.1.2 (antibody, V domains shown)
VH: EVQLVESGGGLVQPGGSLRLSCAASGFTFTSTGISWVRQAPGKGLEWVGRYWAWDGSTNYADSVKGRFTISADTSKNTAYLQMNSLRAEDTAVYYCARTYGIYDTYDNYTEYVMDYWGQGTLVTVSS
VL: DIQMTQSPSSLSASVGDRVTITCRASQDVDTSLAWYKQKPGKAPKLLIYSASFLYSGVPSRFSGSGSGTDFTLTISSLQPEDFATYYCQQSTGHPQTFGQGTKVEIKR
Kd (FGFR3-IIIc [1]): 0.0908 nM

B3: 2B1.1.8 (antibody, V domains shown)
VH: EVQLVESGGGLVQPGGSLRLSCAASGFPFTSLGISWVRQAPGKGLEWVGRYWAWDGSTNYADSVKGRFTISADTSKNTAYLQMNSLRAEDTAVYYCARTYGIYDIYEKYTEYVMDYWGQGTLVTVSS
VL: DIQMTQSPSSLSASVGDRVTITCRASQDVDTSLAWYKQKPGKAPKLLIYSASFLYSGVPSRFSGSGSGTDFTLTISSLQPEDFATYYCQQSTGHPQTFGQGTKVEIKR
Kd (FGFR3-IIIc [1]): 0.112 nM

B5: 2B.1.3.12 (antibody, human IgG1, kappa, V domains shown)
VH: EVQLVESGGGLVQPGGSLRLSCAASGFPFTSTGISWVRQAPGKGLEWVGRTHLGDGSTNYADSVKGRFTISADTSKNTAYLQMNSLRAEDTAVYYCARTYGIYDTYDMYTEYVMDYWGQGTLVTVSS
VL: DIQMTQSPSSLSASVGDRVTITCRASQDVDTSLAWYKQKPGKAPKLLIYSASFLYSGVPSRFSGSGSGTDFTLTISSLQPEDFATYYCQQSTGHPQTFGQGTKVEIKR
notes: Full IgG1/kappa chains; also called Mab 2B.1.3.12
Kd (FGFR2-IIIc [3]): 6.1 nM
Kd (FGFR3-IIIc [4]): 0.72 nM
Kd (FGFR3-IIIc [1]): 0.28 nM
binding result (FGFR1-IIIb [9]): no binding (tested: 500 nM)
Kd (FGFR2-IIIc [5]): 6.1 nM
Kd (FGFR3-IIIc [6]): 0.72 nM
IC50 (read off the curve) (FGFR3-IIIc [8]): 2 to 3 nM

B6: 2B1.1.4 (antibody, V domains shown)
VH: EVQLVESGGGLVQPGGSLRLSCAASGFTFTSTGISWVRQAPGKGLEWVGRYWAWDGSTNYADSVKGRFTISADTSKNTAYLQMNSLRAEDTAVYYCARTYGIYDIYGGYTEYVMDYWGQGTLVTVSS
VL: DIQMTQSPSSLSASVGDRVTITCRASQDVDTSLAWYKQKPGKAPKLLIYSASFLYSGVPSRFSGSGSGTDFTLTISSLQPEDFATYYCQQSTGHPQTFGQGTKVEIKR
Kd (FGFR3-IIIc [1]): 0.153 nM

B7: 2B.1.1.6 (antibody, human IgG1, kappa, V domains shown)
VH: EVQLVESGGGLVQPGGSLRLSCAASGFTFTSTGISWVRQAPGKGLEWVGRYWAWDGSTNYADSVKGRFTISADTSKNTAYLQMNSLRAEDTAVYYCARTYGIYDTYDEYTEYVMDYWGQGTLVTVSS
VL: DIQMTQSPSSLSASVGDRVTITCRASQDVDTSLAWYKQKPGKAPKLLIYSASFLYSGVPSRFSGSGSGTDFTLTISSLQPEDFATYYCQQSTGHPQTFGQGTKVEIKR
notes: Full IgG1/kappa chains
Kd (FGFR3-IIIc [1]): 0.0796 nM

B8: 2B1.1.12 (antibody, V domains shown)
VH: EVQLVESGGGLVQPGGSLRLSCAASGFPFTSTGISWVRQAPGKGLEWVGRYWAWDGSTNYADSVKGRFTISADTSKNTAYLQMNSLRAEDTAVYYCARTYGIYDTYDMYTEYVMDYWGQGTLVTVSS
VL: DIQMTQSPSSLSASVGDRVTITCRASQDVDTSLAWYKQKPGKAPKLLIYSASFLYSGVPSRFSGSGSGTDFTLTISSLQPEDFATYYCQQSTGHPQTFGQGTKVEIKR
Kd (FGFR3-IIIc [1]): 0.142 nM

B9: 2B1.1.10 (antibody, V domains shown)
VH: EVQLVESGGGLVQPGGSLRLSCAASGFPFTSQGISWVRQAPGKGLEWVGRYWAWDGSTNYADSVKGRFTISADTSKNTAYLQMNSLRAEDTAVYYCARTYGIYDTYDKYTEYVMDYWGQGTLVTVSS
VL: DIQMTQSPSSLSASVGDRVTITCRASQDVDTSLAWYKQKPGKAPKLLIYSASFLYSGVPSRFSGSGSGTDFTLTISSLQPEDFATYYCQQSTGHPQTFGQGTKVEIKR
Kd (FGFR3-IIIc [1]): 0.198 nM

B10: 25F7 (antibody, V domains shown)
VH: EVQLQQSGAELLKPGASVRLSCTASGFNIQDTFTHWVRQRPEQGLEWIGRIDPSNGNTKYDPKFQGKAKILADTSSNTAYLQLIGLTSEDTAVYYCASRALGNGYAMDYWGQGTSVTVSS
VL: DIQMTQSSSYLSVSLGGRVTITCKASDHINNWLAWYQQKPGNAPRLLISGASNLETGIPSRFSGSGSGKDYTLTITSLQTEDVATYYCQQYWNTPFTFGSGTKLEIK
binding result (hKLB): binds
